Test results taken from patent US20110237560A1 (published 2011).

Assays:
Myc-human Hsp90beta [1] = target: T1, Myc-human Hsp90beta (human, UniProt P08238 1-724); assay: anti-Flag co-immunoprecipitation from cotransfected HEK293T, western blot anti-myc (FIG. 2C)
T1 construct: also called myc-Hsp90beta; myc-tagged Hsp90beta; not shown: N-terminal myc tag of pCMV-3Tag2

Myc-human Hsp90beta [2] = target: T1, Myc-human Hsp90beta; assay: anti-Flag co-immunoprecipitation from cotransfected HEK293T, western blot anti-myc

T1 sequence (P08238 whole entry): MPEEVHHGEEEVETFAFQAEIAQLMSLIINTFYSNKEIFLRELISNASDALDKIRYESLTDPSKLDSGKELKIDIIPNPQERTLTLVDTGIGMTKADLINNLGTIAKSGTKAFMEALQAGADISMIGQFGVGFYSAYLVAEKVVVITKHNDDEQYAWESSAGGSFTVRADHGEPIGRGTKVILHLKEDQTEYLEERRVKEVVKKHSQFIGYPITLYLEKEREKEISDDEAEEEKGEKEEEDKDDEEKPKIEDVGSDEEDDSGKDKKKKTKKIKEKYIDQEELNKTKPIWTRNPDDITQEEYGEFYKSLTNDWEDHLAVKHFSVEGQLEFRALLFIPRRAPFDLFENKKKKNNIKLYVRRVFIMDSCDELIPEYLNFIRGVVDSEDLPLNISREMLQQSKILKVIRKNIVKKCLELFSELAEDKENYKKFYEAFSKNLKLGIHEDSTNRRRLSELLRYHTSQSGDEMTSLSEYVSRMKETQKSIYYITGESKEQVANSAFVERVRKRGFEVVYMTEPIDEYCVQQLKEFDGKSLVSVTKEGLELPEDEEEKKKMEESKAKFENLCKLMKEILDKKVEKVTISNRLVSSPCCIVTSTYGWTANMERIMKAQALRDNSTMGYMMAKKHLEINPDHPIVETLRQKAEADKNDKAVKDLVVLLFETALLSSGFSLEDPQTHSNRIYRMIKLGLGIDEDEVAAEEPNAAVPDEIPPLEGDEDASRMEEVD

Row | Binder | binding result (Myc-human Hsp90beta [1]) | binding result (Myc-human Hsp90beta [2])
1 | AID-APOBEC2 chimera #1 (enzyme, range 60-96; Flag-tagged in the HEK293T co-immunoprecipitation; also called AID-A2 #1; not shown: its end of the chain and its l) MDSLLMNRRKFLYQFKNVEYSSGRNKTFLCYVVEAQGKGGQVQASRGYLEDEHAAELLFLRYISDWDLDPGRCYRVTWFTSWSPCYDCARHVADFLRGNPNLSLRIFTARLYFCEDRKAEPEGLRRLHRAGVQIAIMTFKDYFYCWNTFVENHERTFKAWEGLHENSVRLSRQLRRILLPLYEVDDLRDAFRTLGL | no binding | 
2 | Flag-tagged rat APOBEC1 (enzyme, UniProt P38483 1-229, looked up, also called A1; not shown: N-terminal Flag tag (annealed oligonucleotides AO1 and AO2)) MSSETGPVAVDPTLRRRIEPHEFEVFFDPRELRKETCLLYEINWGGRHSIWRHTSQNTNKHVEVNFIEKFTTERYFCPNTRCSITWFLSWSPCGECSRAITEFLSRYPHVTLFIYIARLYHHADPRNRQGLRDLISSGVTIQIMTEQESGYCWRNFVNYSPSNEAHWPRYPHLWVRLYVLELYCIILGLPPCLNILRRKQPQLTFFTIALQSCHYQRLPPHILWATGLK |  | no binding
3 | Flag-tagged APOBEC2 (enzyme, UniProt Q9Y235 1-224, looked up, also called A2; not shown: N-terminal Flag tag (annealed oligonucleotides AO1 and AO2)) MAQKEEAAVATEAASQNGEDLENLDDPEKLKELIELPPFEIVTGERLPANFFKFQFRNVEYSSGRNKTFLCYVVEAQGKGGQVQASRGYLEDEHAAAHAEEAFFNTILPAFDPALRYNVTWYVSSSPCAACADRIIKTLSKTKNLRLLILVGRLFMWEEPEIQAALKKLKEAGCKLRIMKPQDFEYVWQNFVEQEEGESKAFQPWEDIQENFLYYEEKLADILK |  | no binding
